Test results published in patent publication US20230381334A1.
Non-standard residues stand in square brackets, D forms with d. No end group written: not given here.

Target: mouse anti V5 antibody (Thermo Scientific)
Test: ELISA: 1 ug/ml mouse anti V5 with increasing SADC, complexes captured on streptavidin via biotinylated SADC peptide, bound IgG detected with anti mouse IgG-HRP

Row | EC50 [µg/mL] | Binder
1 | 0.0555 | IPNPLLGLDGGSGDYKDDDDKGK[BiotinAca]GC (peptide, part only; not given: haptoglobin scaffold, part only, also: bound to haptoglobin scaffold, attachment site not given here) [SADC with haptoglobin scaffold carrying tagged V5 peptide …-(BiotinAca)GC]
2 | 0.0279 | IPNPLLGLDGGSGDYKDDDDKGK[BiotinAca]GC (peptide, part only; not given: albumin scaffold, part only, also: bound to albumin scaffold, attachment site not given here) [SADC with albumin scaffold carrying tagged V5 peptide …-(BiotinAca)GC]
3 | 0.007 | IPNPLLGLDGGSGDYKDDDDKGK[BiotinAca]GC (peptide, part only; not given: transferrin scaffold, part only, also: bound to transferrin scaffold, attachment site not given here) [SADC with transferrin scaffold carrying tagged V5 peptide …-(BiotinAca)GC]
